The target in data set [1] is T1, human serum albumin (Homo sapiens, UniProt P02768).
The target in data set [2] is T1, human serum albumin. Kind of data set: in vitro. The text has this: Fluorescence polarisation assay was used to examine the affinity binding of the imaging agent towards the cMet target as well as the binding properties related to plasma proteins. The principle of the fluorescence polarisation method can briefly be described as follows:
(§1) The change of the polarization value was used to assess the binding of the Compound to human serum albumin as a low change of polarisation value is associated to low binding being appropriate for in-vivo use.

In data set [3] the target is T2, human c-Met/Fc chimera (Homo sapiens, UniProt P08581).
T2 construct: Fc (immunoglobulin Fc fusion partner); purchased R&D Systems
T2 sequence (P08581 with tags, fused parts or gaps limits assumed): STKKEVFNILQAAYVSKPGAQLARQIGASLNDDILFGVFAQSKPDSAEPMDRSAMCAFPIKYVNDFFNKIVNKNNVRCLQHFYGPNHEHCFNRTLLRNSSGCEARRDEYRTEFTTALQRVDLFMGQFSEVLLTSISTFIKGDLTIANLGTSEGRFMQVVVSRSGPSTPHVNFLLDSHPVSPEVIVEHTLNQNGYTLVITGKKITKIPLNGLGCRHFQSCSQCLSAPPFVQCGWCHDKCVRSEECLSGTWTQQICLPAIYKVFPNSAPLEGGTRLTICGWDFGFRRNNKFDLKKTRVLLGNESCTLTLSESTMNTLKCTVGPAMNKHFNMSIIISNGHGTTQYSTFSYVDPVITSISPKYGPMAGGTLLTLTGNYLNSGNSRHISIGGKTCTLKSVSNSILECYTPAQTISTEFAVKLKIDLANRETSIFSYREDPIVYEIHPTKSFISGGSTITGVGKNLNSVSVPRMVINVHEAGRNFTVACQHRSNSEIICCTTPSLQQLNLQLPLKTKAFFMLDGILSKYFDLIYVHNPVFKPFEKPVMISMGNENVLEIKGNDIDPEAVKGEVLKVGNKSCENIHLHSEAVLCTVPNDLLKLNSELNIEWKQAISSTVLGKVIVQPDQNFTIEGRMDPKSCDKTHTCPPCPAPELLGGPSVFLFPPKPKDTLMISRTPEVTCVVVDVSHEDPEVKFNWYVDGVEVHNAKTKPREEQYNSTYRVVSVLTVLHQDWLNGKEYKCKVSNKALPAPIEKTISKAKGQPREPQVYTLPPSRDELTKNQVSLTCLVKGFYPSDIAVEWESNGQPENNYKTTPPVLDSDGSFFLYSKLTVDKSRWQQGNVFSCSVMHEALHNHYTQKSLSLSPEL
T2 sequence (P08581 25-307 limits assumed, change not shown): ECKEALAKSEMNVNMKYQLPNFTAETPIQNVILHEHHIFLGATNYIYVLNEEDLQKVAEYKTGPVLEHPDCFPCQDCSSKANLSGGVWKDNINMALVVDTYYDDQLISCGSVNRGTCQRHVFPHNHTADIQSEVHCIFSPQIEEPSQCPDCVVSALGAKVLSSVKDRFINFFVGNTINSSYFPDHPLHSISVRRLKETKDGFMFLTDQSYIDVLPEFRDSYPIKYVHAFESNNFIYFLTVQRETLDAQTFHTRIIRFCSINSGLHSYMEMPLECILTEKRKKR
Kind of data set: Fluorescence polarisation assay, affinity binding to cMet. Conditions: 5 nM dye-labelled peptide, c-Met/Fc 0-250 nM, 10 min at 30° C., one-site binding. How it is done:
Monochromatic light passes through a […] polarizing filter and excites fluorescent molecules in the sample. Only those molecules that oriented properly in the vertically polarized plane adsorb light, become excited, and subsequently emit light. The emitted light is measured in both horizontal and vertical planes. The anisotropy value (A), is the ratio between the light intensities following the equation
The fluorescence anisotropy measurements were performed in 384-well microplates in a volume of 10 μL in binding buffer (PBS, 0.01% Tween-20, pH 7.5) using a Tecan Safire fluorescence polarisation plate reader (Tecan, US) at Ex 635/Em 678 nm. The concentration of dye-labelled peptide was held constant (5 nM) and the concentration of the human c-Met/Fc chimera (R&D Systems) was varied from 0-250 nM. Binding mixtures were equilibrated in the microplate for 10 min at 30° C. The observed change in anisotropy was fitted to the equation: […]
where robs is the observed anisotropy, rfree is the anisotropy of the free peptide, rbound is the anisotropy of the bound peptide, Kd is the dissociation constant, cMet is the total c-Met concentration, and P is the total dye-labelled peptide concentration. The equation assumes that the synthetic peptide and the receptor form a reversible complex in solution with 1:1 stoichiometry. Data fitting was done via nonlinear regression using SigmaPlot software to obtain the Kd value (one-site binding).
Compounds 1 to 6 were tested for binding towards human c-Met (Fc chimera).
For orientation: Polarisation of emitted light reports the rotation of a fluorescent probe.

The nature of data set [4]: in vitro. The conditions noted are these: mouse, plasma.
Excerpt: as §1

Data set [5] is described as follows: Limited acute dose toxicity study in male rats. It counts as in vivo, rat. The conditions noted are these: i.v. How it is done:
A limited acute dose toxicity study was conducted to investigate the tolerance of Compound 6 at 100 times the preclinical imaging dose (50 nmol/kg body weight).
The compound was injected intravenously in male rats, and the animals were sacrificed at 1, 14, 21 and 28 days post injection (p.i.). At necropsy, the major organs were inspected for gross pathology, and the kidneys were taken into neutral buffered formalin for subsequent histomorphological evaluation. A weak blue colouration of the skin and a moderate blue colouration of the urine were observed immediately after injection, which disappeared within 1 day p.i. […] The other minor changes seen were incidental and common in young adult laboratory rats. Strong fluorescence staining of blood vessels in the kidney was observed on day 1 p.i.

Where a SMILES comes first, the peptide text is derived from it. Bridges are numbered along the chain shown (N, C = ends). The star is where a group is joined. X1 = CC1=CC(C)(C)N(CCCS(=O)(=O)O)c2cc3c(cc21)/C(=C/C=C/C1=[N+](CCCS(=O)(=O)O)c2ccc(S(=O)(=O)[O-])cc2C1(C)CCCC(=O)*)C=C(C(C)(C)C)O3; X5 = CCN1c2cc3c(cc2C(C)=CC1(C)C)/C(=C/C=C/C1=[N+](CCCS(=O)(=O)O)c2ccc(S(=O)(=O)[O-])cc2C1(C)CCCC(=O)*)C=C(C(C)(C)C)O3; X4 = CCN(CC)c1ccc2c(c1)OC(C(C)(C)C)=C/C2=C\C=C\C1=[N+](CCCS(=O)(=O)O)c2ccc(S(=O)(=O)[O-])cc2C1(C)CCCC(=O)*; X6 = CCN(CC)c1ccc2c(c1)OC(C(C)(C)C)=C/C2=C\C=C\C1=[N+](CCCCCC(=O)*)c2ccc(S(=O)(=O)[O-])cc2C1(C)C

Data on 4 molecules can be found in patent US20100196282A1, “OPTICAL IMAGING AGENTS” (priority 2007, published 2010).

T1 sequence (P02768 25-609): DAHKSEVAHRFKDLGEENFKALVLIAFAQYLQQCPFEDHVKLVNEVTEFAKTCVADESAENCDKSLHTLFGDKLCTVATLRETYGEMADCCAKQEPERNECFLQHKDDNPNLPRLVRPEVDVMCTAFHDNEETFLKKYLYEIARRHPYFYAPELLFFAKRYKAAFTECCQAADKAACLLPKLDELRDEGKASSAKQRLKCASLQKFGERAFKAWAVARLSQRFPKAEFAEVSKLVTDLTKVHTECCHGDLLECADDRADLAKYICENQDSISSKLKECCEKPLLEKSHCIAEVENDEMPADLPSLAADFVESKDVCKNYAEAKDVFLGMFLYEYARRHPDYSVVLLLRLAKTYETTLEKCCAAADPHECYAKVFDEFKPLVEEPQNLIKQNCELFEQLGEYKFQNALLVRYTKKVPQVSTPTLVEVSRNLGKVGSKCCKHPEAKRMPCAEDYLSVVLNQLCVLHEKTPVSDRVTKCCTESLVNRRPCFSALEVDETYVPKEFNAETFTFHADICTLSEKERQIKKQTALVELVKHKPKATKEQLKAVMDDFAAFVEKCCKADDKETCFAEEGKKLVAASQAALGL

The fraction unbound is the share of the substance not bound to proteins or other matrix. A higher fraction unbound goes with weak binding. One may read the Kd as the free concentration of one partner at which half of the binding sites on the other are occupied at equilibrium, for simple one-to-one binding. Higher therefore signals weaker binding. For orientation: amount remaining means what is left of the initial amount, in per cent. Low values mean more turnover, high ones less turnover. As for `CCN(CC)c1ccc2c(c1)OC(C(C)(C)C)=C/C2=C\C=C\C1=[N+](CCCCCC(=O)NCCCC[C@H](NC(=O)CNC(=O)CNC(=O)CNC(=O)[C@@H](NC(=O)CNC(=O)[C@H](CCC(=O)O)NC(=O)[C@@H](NC(=O)[C@H](CCC(=O)O)NC(=O)[C@H](Cc2ccc(O)cc2)NC(=O)[C@@H]2CSSC[C@H](NC(=O)[C@H](CO)NC(=O)CNC(=O)[C@H](C)NC(C)=O)C(=O)N[C@@H](Cc3ccc(O)cc3)C(=O)N[C@H]3CSSC[C@H](NC(=O)[C@H](CCC(=O)O)NC(=O)[C@H](Cc4ccccc4)NC(=O)[C@H](CCCNC(=N)N)NC(=O)[C@@H]4CCCN4C(=O)[C@@H]4CCCN4C(=O)CNC(=O)[C@H](CO)NC3=O)C(=O)N[C@@H](Cc3c[nH]c4ccccc34)C(=O)N2)[C@@H](C)O)[C@@H](C)O)C(N)=O)c2ccc(S(=O)(=O)[O-])cc2C1(C)C` [Compound 1] (Ac-AGSCYCSGPPRFECWCYETEGTGGGK(X6)-NH2; disulfide 4-16, 6-14), the “Binding human serum albumin (Biacore)” value in data set [1] was “Very high”. The same molecule showed a fraction unbound in data set [2] of 0.64. Moreover, in data set [3], the Kd was determined as 2.2 nM. In data set [4], the fraction remaining at 2 h was over 95%.

As for `CCN(CC)c1ccc2c(c1)OC(C(C)(C)C)=C/C2=C\C=C\C1=[N+](CCCS(=O)(=O)O)c2ccc(S(=O)(=O)[O-])cc2C1(C)CCCC(=O)NCCCC[C@H](NC(=O)CNC(=O)CNC(=O)CNC(=O)[C@@H](NC(=O)CNC(=O)[C@H](CCC(=O)O)NC(=O)[C@@H](NC(=O)[C@H](CCC(=O)O)NC(=O)[C@H](Cc1ccc(O)cc1)NC(=O)[C@@H]1CSSC[C@H](NC(=O)[C@H](CO)NC(=O)CNC(=O)[C@H](C)NC(C)=O)C(=O)N[C@@H](Cc2ccc(O)cc2)C(=O)N[C@H]2CSSC[C@H](NC(=O)[C@H](CCC(=O)O)NC(=O)[C@H](Cc3ccccc3)NC(=O)[C@H](CCCNC(=N)N)NC(=O)[C@@H]3CCCN3C(=O)[C@@H]3CCCN3C(=O)CNC(=O)[C@H](CO)NC2=O)C(=O)N[C@@H](Cc2c[nH]c3ccccc23)C(=O)N1)[C@@H](C)O)[C@@H](C)O)C(N)=O` (stereo partly drawn) [Compound 2] (Ac-AGSCYCSGPPRFECWCYETEGTGGGK(X4)-NH2; disulfide 4-16, 6-14), the “Binding human serum albumin (Biacore)” value in data set [1] is “Very low”. The fraction unbound in data set [2] is 0.67. The same molecule came in with a Kd in data set [3] of 0.5 nM. This molecule showed an amount remaining at 2 h in data set [4] of over 95%.

With `CCN1c2cc3c(cc2C(C)=CC1(C)C)/C(=C/C=C/C1=[N+](CCCS(=O)(=O)O)c2ccc(S(=O)(=O)[O-])cc2C1(C)CCCC(=O)NCCCC[C@H](NC(=O)CNC(=O)CNC(=O)CNC(=O)[C@@H](NC(=O)CNC(=O)[C@H](CCC(=O)O)NC(=O)[C@@H](NC(=O)[C@H](CCC(=O)O)NC(=O)[C@H](Cc1ccc(O)cc1)NC(=O)[C@@H]1CSSC[C@H](NC(=O)[C@H](CO)NC(=O)CNC(=O)[C@H](C)NC(C)=O)C(=O)N[C@@H](Cc2ccc(O)cc2)C(=O)N[C@H]2CSSC[C@H](NC(=O)[C@H](CCC(=O)O)NC(=O)[C@H](Cc4ccccc4)NC(=O)[C@H](CCCNC(=N)N)NC(=O)[C@@H]4CCCN4C(=O)[C@@H]4CCCN4C(=O)CNC(=O)[C@H](CO)NC2=O)C(=O)N[C@@H](Cc2c[nH]c4ccccc24)C(=O)N1)[C@@H](C)O)[C@@H](C)O)C(N)=O)C=C(C(C)(C)C)O3` (stereo partly drawn) [Compound 5] (Ac-AGSCYCSGPPRFECWCYETEGTGGGK(X5)-NH2; disulfide 4-16, 6-14), the “Binding human serum albumin (Biacore)” value in data set [1] is on record as “Medium”. In addition, the fraction unbound in data set [2] is 0.51. The molecule also came in with a dissociation constant Kd in data set [3] of 2.2 nM. The fraction remaining at 2 h in data set [4] was over 95%.

As for `CC(=O)N[C@@H](C)C(=O)NCC(=O)N[C@@H](CO)C(=O)N[C@H]1CSSC[C@@H](C(=O)N[C@@H](Cc2ccc(O)cc2)C(=O)N[C@@H](CCC(=O)O)C(=O)N[C@H](C(=O)N[C@@H](CCC(=O)O)C(=O)NCC(=O)N[C@H](C(=O)NCC(=O)NCC(=O)NCC(=O)N[C@@H](CCCCNC(=O)CCCC2(C)C(/C=C/C=C3\C=C(C(C)(C)C)Oc4cc5c(cc43)C(C)=CC(C)(C)N5CCCS(=O)(=O)O)=[N+](CCCS(=O)(=O)O)c3ccc(S(=O)(=O)[O-])cc32)C(N)=O)[C@@H](C)O)[C@@H](C)O)NC(=O)[C@H](Cc2c[nH]c3ccccc23)NC(=O)[C@@H]2CSSC[C@H](NC(=O)[C@H](Cc3ccc(O)cc3)NC1=O)C(=O)N[C@@H](CO)C(=O)NCC(=O)N1CCC[C@H]1C(=O)N1CCC[C@H]1C(=O)N[C@@H](CCCNC(=N)N)C(=O)N[C@@H](Cc1ccccc1)C(=O)N[C@@H](CCC(=O)O)C(=O)N2` (stereo partly drawn) [Compound 6] (Ac-AGSCYCSGPPRFECWCYETEGTGGGK(X1)-NH2; disulfide 4-16, 6-14), the “Fluorescence staining of blood vessels in the kidney” value in data set [5] (100 times dose, day 21 p.i. (strong on day 1, reduced by day 14)) is on record as “not discernible from control”. For the same molecule, the “Light microscopy of the kidneys” value in data set [5] (100 times dose, necropsy at 1, 14, 21 and 28 days p.i.) is given as “no Compound 6-related findings in the kidneys”. The Nephrotoxicity result in data set [5] (100 times dose, no degeneration, necrosis or inflammation) is “low”. Besides, in data set [5] (100 times dose, observed immediately after injection), the “Time to disappearance of blue colouration of skin and urine” value is at most 1 days. For the same molecule, the “Tolerance of a single intravenous administration” value in data set [5] (100 times the preclinical imaging dose (50 nmol/kg body weight)) is “well tolerated and without any drug substance related adverse effects”. In addition, the “Binding human serum albumin (Biacore)” value in data set [1] is “Very low”. The molecule also had a fraction unbound in data set [2] of 0.54. For the same molecule, binding in data set [3] was put at a Kd of 0.9 nM. This molecule also came in with a share remaining at 2 h in data set [4] of over 95%.
